{"source": "the nanobody polyreactivity screen of Harvey et al. (2022)"}
{"experiment": "yeast display, Sf9 membrane polyspecificity reagent, FACS + sequencing; frameworks hold sequencing errors", "method_in_brief": "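After 36–48 hours of galactose induction, yeast (Saccharomyces cerevisiae BJ5465) displaying a synthetic nanobody library were stained at 4 °C for 1 hour with 10% biotinylated, detergent-solubilized Sf9 membrane reagent. Streptavidin microbeads enriched the stained cells before FACS sorting into low and high (top ~1%) gates on anti-HA and streptavidin fluorescence. Each clone's polyreactivity label reflects its gate of origin.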"}
{"sequence": "QVQLVESGGGLVQAGGSLRLSCAASGRTFNRNAMGWYRPAPGKERELVAAISWGGSRTYYADSVKGRFTISRDNAKNTVYLQMNSLKPEDTAVYYCAVDGFRGRSHGANDYWGQGTQVTVSS", "polyreactivity (PSR sort gate)": "high polyreactivity"}
{"sequence": "QVQLVESGGGLVQAGGSLRLSCAASGSTFYRYAMGWYRQAPGKERELVAAIRGSGGRTYYADSVKGRFTISRDNAKNTVYLQMNSLKPEDTAVYYCAAYRGVSQKGDYWGEGTQVTVSS", "polyreactivity (PSR sort gate)": "high polyreactivity"}
{"sequence": "QVQLVESGGGLVQAGGSLRLSCAASGRIIGKNAMGWYRQAPGKERELVAAIRYNGGRTYYADSVKGRFTISRDNAKNTVYLQMNSLKPEDTAVYYCATRTYRVDPEFGYWGQGTQVTVSS", "polyreactivity (PSR sort gate)": "high polyreactivity"}
{"sequence": "PVQLVESGGGLVQAGVSLRLSGAASGFIFYYYAMGWYSQAPGKEREFVAAISQSVGSTYYADSVKGRFTISRDNANNTVYLQMNSLKPADTAVYYCNARGWIPARGWDDYYWGQGTQVTVSS", "polyreactivity (PSR sort gate)": "high polyreactivity"}
{"sequence": "QVQRVESGGGLVQAGCSLRLSCAASGLIFTRYDMGWNRPAPGKERELVAAISGDGGSTYYAESVKGRFTISRDNAKNTVYLQMNSLKPEDTAVYYCAADSARTPWDDYWGQGTQVTVSS", "polyreactivity (PSR sort gate)": "high polyreactivity"}
{"sequence": "QVQLVESGGGLVQAGGSLRLSCGASGRIFAYYAMGWYRQAPGKERELVADISSGGNTYYADSVKGRFTISRDNAKNTVYLQMNSLKPEDTAVYYCAADIAWYTHDHRIFDYWGQGTQVTVSS", "polyreactivity (PSR sort gate)": "low polyreactivity"}
{"sequence": "QVQLVESGGGLVQAGGSLRLSCAASGSASRGNAMGWYRQAPGKERELVATISQSGGNTFYADSVKGRFTISRDNAKNSVYLQMNSLKPEDTAVYYCAAGRYWFGWYDYWGQGTQVTVSS", "polyreactivity (PSR sort gate)": "high polyreactivity"}
{"sequence": "QVQLVESGGGLVQAGGSLRLSCAASGFIFRYYAMGWYRQAPGKERELFAAISWSGGTTYYADSVKGRFTISRDNAKNTVYLQMNSLKPEDTAVYYCNAGYNGKRRDPVDYWGQGTQVTVSS", "polyreactivity (PSR sort gate)": "low polyreactivity"}
{"sequence": "QVQLVESGGGLVQAGGSLRLSCAASGRTFDRYTMGWYRRAPGKERELVATIRSTGSTYYADSVKGRFTISRDNAKNTVYLQMNSLKTEDTAVYYCNRKYRSSLPYGDGYWGQGTQVTVSS", "polyreactivity (PSR sort gate)": "low polyreactivity"}
{"sequence": "QVQLVESGGGLVQAGGSLRLSCAASGRIFGVNAMGWYRQAPGKERELVAAINFSGGGTYYADSVKGRFTISRDNAKNTVYLQMTSLKPEDTAVYYCAADGPDYKWYYELDYWGQGTQVTVSS", "polyreactivity (PSR sort gate)": "low polyreactivity"}
{"sequence": "QVQLVESGGGLVQAGGSLRLSCAASGRIFYSYGMGWSRQGPGKERELVASITISGGGSTYYADSVKGRFTISRDNAKNTVYLQMISLKPEATAVYYCAATLTVWKYIYDYWGQGTQVTVSS", "polyreactivity (PSR sort gate)": "high polyreactivity"}
{"sequence": "QVQLVESGGGLVQAGGSLRLSCAASGRIFRVNAMGWYRQAPGKDREFVAAITASSGRTSYADSVKGRFTISRDNAQNTVYLQMNSLKPEDTAVYYCNAAVSQFSHRWRRRITFDYWGQGTQVTVSS", "polyreactivity (PSR sort gate)": "low polyreactivity"}
{"sequence": "PVQLVESGGGLVQAGGRLRLSCASSGLTFYYYAMGWYLQSPGKESELVAALSRSGGSTYYADSVKGRFTISRDNAQNTVYLQMISLKPEDTAVYYCAAREPYEVLLYYYEDYYWGQGTQVTVSS", "polyreactivity (PSR sort gate)": "high polyreactivity"}
{"sequence": "QVQLVESGGGFVQAGGSLRLSCAASGRTFPEYDMGRYRQAPGKERELVAAISTSGGSTYYADSVKGRFTISRDIAKNTVYLQMNSLKPEDTGVYYCAAQVTSIWGFTYAYRYDYWGQGTHVTVSS", "polyreactivity (PSR sort gate)": "low polyreactivity"}
{"sequence": "QVQLVESGGGLVQAGGSLRLSCAASGFIFWSYAMGWYRQAPGKERELVAAIDLTGGSTYYADSVKGRFTISRDNAKNTVYLQMNSLKPEDTAVYYCNADGDSYAFTNSDSGFDYWGQGTQVTVSS", "polyreactivity (PSR sort gate)": "low polyreactivity"}
{"sequence": "QVQLLESGGGLVQAGGSLRLSCAASGFIFPGYAMGWYRQAPGKEREFVAAITSRGGSTYYADSVKGRFTISRDNAKNTVYLQMNSLKPEDTAVYYCAARNFLSRRGTYDYWGQGTQVTVSS", "polyreactivity (PSR sort gate)": "high polyreactivity"}
{"sequence": "QVQLVESGVGLVQAGGSLRLSCAASGGTFVTYAMGWFSQAPGKERELVAAISATDGRTYNADSVKGRFTISRDNAKNTVYLQMNSLKPADTAVYYCAAVGPYTQSRGKYSNLFYWGQGTQVTVSS", "polyreactivity (PSR sort gate)": "high polyreactivity"}
{"sequence": "QVQLVESGGGLVQAGGSLRLSCAASGSTFYYNAMGWYRQAPGKERELVAAITFTGGSTYADSVKGRFTISRDNAKNTVYLQLNSLKPEDTAVYYCAATIQGHDYLGTGYDYWGQGTQVTVSS", "polyreactivity (PSR sort gate)": "low polyreactivity"}
{"sequence": "QVQLVESGGGLVQAGGSLRLSCAASGFTFTYNAMGWYRQEPGKERELVAAITANGGGTNYADSVKGRFTISRDNAKNTVYLQMNSLKPEDTAVYYCAATIVVAVFESLGFYWYTEENYWGQGTLVTVSS", "polyreactivity (PSR sort gate)": "low polyreactivity"}
{"sequence": "QVQLVESGGGLVQAGRSLRLSCAASGLTFKWYAMGWYRQAPGKERELVAAISRDGSTYYADSVKGRFTISRDNAKNTVYLQMNSLKPEDTAVYDCAADIWPSSLLADEYDYWGQGTQVTVSS", "polyreactivity (PSR sort gate)": "high polyreactivity"}
{"sequence": "QVQLVESGGGLVQAGGSLRLSCAASGSIFVYNAMGWYRQAPGKERELVASITWSGGRTYYADSVKGRFTNSRDNAQNTVYLQMNSLKPEDTAVYYCAADSPRGYDYWGQGTQVTVSS", "polyreactivity (PSR sort gate)": "high polyreactivity"}
{"sequence": "QVQLVESGGGLVQAGGSLRLTCAASGRTFQYYSMGWYRQAPGKERELVAAISQDGGSTYYADSVKGRFTISRDNAKNTVYLQMNSLKPEDTAVYYCAARVDEYAYYALDDYWGQGTQVTVSS", "polyreactivity (PSR sort gate)": "low polyreactivity"}
{"sequence": "QVQLVESGGGLVQAGGSLRLSCAASGFTFYLYTMGWYRQAPGKERELVASLTGSGGSTYYADSVKGRFTISRDNAKNTVYLQMHSLKPEDTAVYYCNARYYVYSATVDRYYHFYYWGQGTQVTVSS", "polyreactivity (PSR sort gate)": "high polyreactivity"}
{"sequence": "QVQLVESGGGLVQAGGSLRLSCAASGFTFQYYAMGWYRQAPGKERELVAAISRSGGSTYYADSVKGRFTISRDNAKNTVYLQMNSLKPEDTAVYYCAKDRVGARRTDYDYWGQGTQVTVSS", "polyreactivity (PSR sort gate)": "high polyreactivity"}
{"sequence": "QVQPVESGGGLVQAGGSLRLSCAASGRIFGDYAMGWYRQAPGKERELVAAINCSGTSTNYADSVKGRFTISRDNAKYTVYLEMNSLKPEFTAVYYCNAEGTYRPEYDSWVQGTQVTVSS", "polyreactivity (PSR sort gate)": "low polyreactivity"}
{"sequence": "QVQLVESGGGLVQAGGSLRFSCAASGSIFSVYAMGWYRQAPGKEREWVAAITSGTYTYADSVKGRFTISRDNAKNSVYLQMNSLKAEDTAVYYCAAESGSPGYYYWGQGTQVTVST", "polyreactivity (PSR sort gate)": "low polyreactivity"}
{"sequence": "QGQLVESGGGLVQAGGSLRLSCDASGSTFFENTMGWYRQAHGQERELVAAITSGGGRPYYADSVKGRFTISRDNAKNTVYLQLNSLKPEETAVYYCAARARYTRRGRHYDYWGQGTQVTVSS", "polyreactivity (PSR sort gate)": "high polyreactivity"}
{"sequence": "QVQLVESGGGLVQAGGSLRLSCAASGSTYRGYAMGWYRQAPGKEMELVAAISNRGTRTYYADSVKGRFTISRYNAKNTFYLQMNSLKPEDTAVYYFSAGNRVHRFDYWGQGTQVTVSS", "polyreactivity (PSR sort gate)": "high polyreactivity"}
{"sequence": "QVQLEESGGGLVQAGGSLRLSCAASGSTFTAYAMGWYREAPGKEMELVAAINWSGGTTYYADSVKGRFTISRDNAKNTVYLQMNSLKPEDTAVYYCAVDGNFFGEVRPYDYWGQGTQVTVSS", "polyreactivity (PSR sort gate)": "low polyreactivity"}
{"sequence": "QVQLEESGGGLVQAGGSLRLSCAASGSIFRRYARGWYRQAPGKERELVAAISRSGSSTYADSVKGRFTISRDNAKNTVYLQMNSLKPEDTAVYYCAASYAFLYYGYDSWGQGTQVTVSS", "polyreactivity (PSR sort gate)": "low polyreactivity"}
{"sequence": "HVQLVESGGCLFQAGGSLRLSCAASGRIFPGYAMGWYRQAPGKERELFAAINTSGGRTYYADSVKGRFTISGENAKNTVYLQMNSLKPEDTAVSYCAAVYRSRYDYWGQGTQVTVSS", "polyreactivity (PSR sort gate)": "high polyreactivity"}
{"sequence": "QVQLVESGGGLVQAGGSLRLSCAASGNIFGWYAMGWYRQAPGKERELVAAISSGGRTNYADSVKGRFTISRDNAKNTVYLQMNSLKPEDTAVYYCAAERKLYGLYDYWGQGTQVTVSS", "polyreactivity (PSR sort gate)": "low polyreactivity"}
{"sequence": "QVQLVESGGGLVQAGGSLRISCAASGLTLTSNDMGWYRQAPGKEREFVASITWSGGSTSYADSVKGRFTISRDNAKNTVYLQMNSLKPEDTAVYYCAARPRYFSKSWRGYYYWGQGTQVNVSS", "polyreactivity (PSR sort gate)": "high polyreactivity"}
{"sequence": "QVQLQESGDGLVQAGGSLRLSSAASGTIFSDYGMGGYRQAPGKERELLAGISDGCNTNYTDSVKGRFTISRDNAHRVSADEQPETGGYRGVLLGGSERWLIFYVYWGQGTQVTVSC", "polyreactivity (PSR sort gate)": "high polyreactivity"}
{"sequence": "QVQLVESGGGLVQAGGSLRLSCAASGSIFVANAMGWYRQAPGKERELVAVISSGGGSTSYADSVKGRFTISRDNAKNTVYLQMSSLKPEDTAVYDCTRRRYDAGSTMGYWGQGTQVTVSS", "polyreactivity (PSR sort gate)": "low polyreactivity"}
{"sequence": "QVQLVESGGGLVQAGGSLRLSCAASGLTFTSYAMGWYRQAPGKERELVAAIDWSGGRTYYADSVKGRFTISRDNAKNTVYLQMNSLKPEDTAVYYCAAYSRNRSLRFNYWGQGTQVTVSS", "polyreactivity (PSR sort gate)": "high polyreactivity"}
{"sequence": "QVQLVESGGGLVQAGGSLRLSCHASGYTFYVYALGWYRQPPGKERELVAAIGGGSTNYADSVKGRFTISRDNAKNTVYLQMNSLKPEDTAVYYCAARRYYKFYYWGQGTQVTVSS", "polyreactivity (PSR sort gate)": "high polyreactivity"}
{"sequence": "QVQLVESGGGLVQAGGSLRLTCAASGSNFWSYDMGWYRQAPGKERELVATITSGDSTYYADSVKGRFTISRDNAKNTVYLQMYSLKPEDTAVYYCAAGTYYRRPYWHRDYDYWGQGTQVTVSS", "polyreactivity (PSR sort gate)": "low polyreactivity"}
{"sequence": "QVQLVESGGGLVQAGGSLRLSCAASGSIFPGYAMGWYRQAPGKERELVATIRWSSGSRTNYADSVKGRFTISRDNAKNTVYLQMNSLKPEDTAVYYCAAGSRRYKYDYWGQGTQVTVSS", "polyreactivity (PSR sort gate)": "high polyreactivity"}
{"sequence": "QVQLVESGGGLVQAGGSLRLSCAASGSTFWWYAMGWYRQAPGKERELVAAISIGGATKYADSVKGRFTISRDNAKNTFYLQMNILKPEDTAVYYCAAVVSYHYVPYGYWGQCTQVTVSS", "polyreactivity (PSR sort gate)": "low polyreactivity"}
{"sequence": "QVQLVESGGGLVQAGGSLRLSCAASGFIFSYYAMGWYRQAPGKERELVAAITQSGGGTYYADSVKGRFTISRDNAKNTVYLQMNSLKPEDTAVYYCAKSRRVYSREGWFHYRAYGYWGQGTQVTVSS", "polyreactivity (PSR sort gate)": "high polyreactivity"}
{"sequence": "QDQLGDSGGGLVQAGGSLSLSCAASGFIFYRYAMGWYRQAPGKERELVAAISGRGGSTYYADSVKGRFTISRDNAKNTVYLQMNSLKPEDTAVYYCATKPRSDSYGNYDYWGQGTQVTVSS", "polyreactivity (PSR sort gate)": "high polyreactivity"}
{"sequence": "QVQLVESGGGLVQAGGSLRLSCAASGRTFWNYAMGWYRQATGKERELVAVIRFSDGSTYYADSVKGRFTISRDNAKNTVYLQMNSLKPEDTAVYYCAAKGPRRWGSGFDYWGQGTQVTVSS", "polyreactivity (PSR sort gate)": "low polyreactivity"}
